Results on one molecule are retold here after US20120172306A1, “Use of HASF as a Protective Agent Against Ischemic Tissue Damage” (Duke University, priority 2009, published 2012).

Experiment [1] has as its system adult rat cardiomyocytes. Briefly: Caspase-Glo 9 and 3/7 assays of H2O2 induced apoptosis. It counts as cell-based. As to conditions: 10 nM for 30 min, 100 μM H2O2, 5 h. As for the experimental part:
FIGS. 2B and 2C are bar graphs showing relative caspase activity. Adult rat cardiomyocytes were freshly isolated and treated ±10 nM of HASF for 30 min, and then challenged with 100 μM of H2O2 for various time points. H2O2 induced apoptosis in cardiomyocytes was evidenced by the dynamic increase in the activities of the initiator Caspase 9 and effector Caspase […] at 5 h, 7 h and 9 h respectively. Y axis represent the relative amount of luminescence indicating the relative amount of active Caspase activities. ** P<0.01 and *** P<0.001. Data are presented as means±standard deviation of triplicates.
FIG. 3C is a bar graph showing fold-change in caspase activity. Serum-starved adult rat cardiomyocytes were treated with 3 μM PKC inhibitors or vehicle DMSO for 30 minutes, then 100 nM HASF recombinant protein was added for 30 minutes followed by treatment with 200 μM H2O2 for 3 hours. Apoptosis was determined by detection of Caspase-9 activity using a homogeneous luminescent assay. All samples were measured in triplicates. *P<0.05 vs. non-HASF treated cells.
FIG. 4C is a bar graph showing relative caspase activity in adult cardiomyocytes. Apoptosis as determined by detection of Caspase-9 activity on adult rat cardiomyocytes pre-treated with 178 μM PKC translocation inhibitor peptide for 10 minutes and then with 100 nM of HASF for 30 minutes. Thereafter, cells were challenged with 200 μM H2O2 for 3 hours. All samples were measured in triplicates. *P <0.05 vs. non-HASF treated cells and the experiment was repeated multiple times.
Adult rat ventricular cardiomyocytes were isolated from 6 weeks old female Sprague-Dawley rat (Harlan World Headquarters, Indianapolis, Ill., USA) hearts by enzymatic digestion and were seeded in (6-well) plates or Delta T culture dishes (Bioptechs, Inc., Pa.) pre-coated with 1 μg/cm2 of laminin (Sigma) at 5×10^4/well and cultured overnight in serum-free M199 medium (Sigma), supplemented with 2 mM of L-carnitine, 5 mM of creatine, 5 mM of taurine, 0.2% of albumin, 100 U/ml of penicillin and 100 μg/ml of streptomycin. […]

Experiment [2] relates to adult rat cardiomyocytes. The experiment is described as follows: DNA fragmentation and apoptosis-related protein western blotting. The class given is cell-based. As for the experimental part: FIGS. 7A-C are a series of photographs showing the effects of HASF in cytochrome c, Bcl2, Bax and DNA degradation. In FIG. 7A, Adult rat cardiomyocytes were treated with +10 nM of HASF for 30 min, and then challenged with 100 μM of H2O2 for 6 h. Mitochondrial fraction or cytosolic fraction or total cell lysate were extracted and separated in 15% SDS-PAGE and transferred to nitrocellulose membrane and probed with mouse anti-Cytochrome C monoclonal antibody. Lane 1-2, —H2O2 control; lane 3-4, +H2O2 control; lane 5-8, four individual samples of +HASF recombinant protein and then +H2O2. In FIG. 7B, Western blot of mitochondrial fractions with Bcl2 and Bax antibodies respectively. Lane 1, —H2O2control; lane 2, +H2O2control; lane 3-6, four individual samples of +HASF and then +H2O2. In FIG. 7C, adult rat cardiomyocytes were treated +10 nM of HASF for 30 min, and then challenged with 100 μM of H2O2 for overnight (˜15 h). Genomic DNA was extracted and separated on 1% agarose gel. H2O2 induced apoptosis in cardiomyocytes was companied by typical DNA fragmentation (laddering) at late-stage apoptosis. Pre-incubation of cardiomyocytes with 10 nM of this HASF recombinant protein inhibited the DNA laddering to a noticeable extends. Lane 1, DNA marker; lane 2, —H2O2control; lane 3-4, +H2O2; lane 5-6, +HASF recombinant protein and then +H2O2.
Adult rat ventricular cardiomyocytes were isolated from 6 weeks old female Sprague-Dawley rat (Harlan World Headquarters, Indianapolis, Ill., USA) hearts by enzymatic digestion and were seeded in (6-well) plates or Delta T culture dishes (Bioptechs, Inc., Pa.) pre-coated with 1 μg/cm2 of laminin (Sigma) at 5×10^4/well and cultured overnight in serum-free M199 medium (Sigma), supplemented with 2 mM of L-carnitine, 5 mM of creatine, 5 mM of taurine, 0.2% of albumin, 100 U/ml of penicillin and 100 μg/ml of streptomycin. Cells were briefly treated without or with PKC inhibitor (with vehicle saponin), then recombinant protein HASF (10 or 100 nM) was added into cells for 30 min, with PBS used as vehicle controls. The cells were challenged with H2O2 for various time points. For the Caspase assays, cardiomyocytes were scraped off plates in lysis buffer and were analyzed by a luminescent plate reader with Caspase-Glo 3/7 and or Caspase-Glo 9 kits (Promega); and for DNA fragmentation, genomic DNA from cardiomyocytes was extracted and separated on 1% agarose gel electrophoreses, with Apoptotic DNA Ladder Extraction Kit (BioVision), according to manufacturers' instructions. […]
In general terms: Immunoblotting shows a protein as a band on a membrane.

Experiment [3] has as its system rat myocardial infarction, peri-infarct region. Briefly: In vivo ischemia/reperfusion injury, TUNEL staining. As to conditions: 1 μg intramyocardial, 30 min ischemia/24 h reperfusion. As for the experimental part:
FIG. 5B is a series of photographs and a bar graph showing TUNEL staining in control or HASF injected animals from groups described above to detect in vivo apoptosis of cardiomyocytes. Serial cyrosections of 5 μm thick were made immediately below the ligation area, 10 sections for each heart were analyzed, with N=8 rats per group. Sections were counterstained with hematoxylin. Total number of dark-brown color stained apoptotic nuclei were counted and added up blindly in 10 randomly taken fields within the peri-infarct region in each group.
Female Sprague-Dawley rats were used for all in vivo experiments. A midsternal thoracotomy was performed to expose the anterior surface of the heart after anesthesia. The proximal left […] coronary artery (LAD) was identified and a 6.0 suture (Ethicon) was placed around the artery and surrounding myocardium. […]
For TUNEL staining (DeadEnd Colometric TUNEL System, Promega) after 30 min ischemia/24 h reperfusion, serial cyrosections of 5 μm thick were made immediately below the ligation area, 10 sections for each heart were analyzed, with 8 rats in each group. […] Total number of dark-brown color stained apoptotic nuclei were counted and added up blindly in 10 randomly taken fields within the peri-infarct region in each group.

B1: HASF: Hypoxia regulated Akt MSC Factor, secreted protein encoded by C3orf58; recombinant human protein without N-signal sequence, SEQ ID NO:1 or 2 (protein, UniProt Q8NDZ4 36-430, looked up)
Divergent protein kinase …: LASWQRNELTDRRFLQLNKCPACFGTSWCRRFLNGQVVFEAWGRLRLLDFLNVKNVYFAQYGEPREGGRRRVVLKRLGSQRELAQLDQSICKRATGRPRCDLLQAMPRTEFARLNGDVRLLTPEAVEGWSDLVHCPSQRLLDRLVRRYAETKDSGSFLLRNLKDSERMQLLLTLAFNPEPLVLQSFPSDEGWPFAKYLGACGRMVAVNYVGEELWSYFNAPWEKRVDLAWQLMEIAEQLTNNDFEFALYLLDVSFDNFAVGPRDGKVIIVDAENVLVADKRLIRQNKPENWDVWYESKFDDCDKEACLSFSKEILCARATVDHNYYAVCQNLLSRHATWRGTSGGLLHDPPSEIAKDGRLEALLDECANPKKRYGRFQAAKELREYLAQLSNNVR
modifications: 6xHis tag
Consider B1, for which, in the experiment with adult rat cardiomyocytes [1], the “reduction of Caspase 3/7” value is about 45% and the “reduction of Caspase 9” value is about 38%. In the experiment with adult rat cardiomyocytes [2] (10 nM for 30 min, 100 μM H2O2), the “mitochondrial anti-apoptotic Bcl-2 protein level” value is “increased levels”. The “cytochrome C release into the cytosol” value in the experiment with adult rat cardiomyocytes [2] (10 nM for 30 min, 100 μM H2O2 6 h) was “prevention of cytochrome C release into the cytosol”. In addition, the DNA fragmentation result in the experiment with adult rat cardiomyocytes [2] (10 nM for 30 min, 100 μM H2O2 overnight (~15 h)) is “reduction of DNA fragmentation”. Moreover, the “translocation of Bax protein from cytosol into mitochondria” value in the experiment on adult rat cardiomyocytes [2] (H2O2 induced apoptosis) was “did not prevent”. For the same molecule, in experiment [3], the “reduction of the number of TUNEL positive nuclei” value is listed as about 69%.
